Test results published in the supplement of paper PMC10065799, “High-throughput profiling of sequence recognition by tyrosine kinases and SH2 domains using bacterial peptide display” (eLife, 2023).

Tested on: AncSZ;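 also: 11-residue human phosphosite peptides and single-mutation variants displayed on the E. coli surface, counted by deep sequencing, each peptide's frequency after selection divided by its frequency in the unselected input library; frequency after pTyr selection over input frequency; kinase dosed for 20-30% of maximal phosphorylation in three min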
Experiment: phosphorylation enrichment, bacterial display (enrichment ratio); higher = better substrate or ligand; peptides without Tyr show the background
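For SH2 binding enrichment of the phosphorylated peptide, bacterial display in this document: peptide library displayed on the E. coli surface as eCPX fusions, selected cells deep-sequenced, score is each peptide's frequency after selection divided by its frequency in the input.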

| Sequence | phosphorylation enrichment |
| --- | --- |
| FRARAYGFRGP [CHGA_Y381] | 0.839 |
| GRVYVYRLSEQ [ITGAE_Y551] | 0.858 |
| SILTVYSKDNY [PANK2_Y400_A398T] | 0.678 |
| CTTIHYNYMCT [TP53_Y234_N239T] | 0.936 |
| TLLAFYMGNFS [GLB1_Y552_P549L] | 1.18 |
| CTTILYNYMCN [TP53_Y234_H233L] | 1.18 |
| AEYGLYRAMVR [VSX2_Y222_G223R] | 0.814 |
| RDSQIYAVDYE [MRPS34_Y34_L33I] | 1.86 |
| VKMLPYTEVTR [GDI1_Y93_L92P] | 0.555 |
| AGITAYQSCLQ [ADGRA2_Y377] | 1.12 |
| ALTDNYMFLVI [HAGH_Y61_YF] | 1.37 |
| FASALYGQRRS [FGF11_Y162_R163G_YF] | 0.724 |
| EGTATYAAAVL [JUP_Y644] | 0.587 |
| ITGNGYFFRVF [MYBPC3_Y1135_I1131T_YF] | 0.906 |
| KNKELYSDPFD [PDE10A_Y300_L303P] | 0.877 |
| FDRREYSRFEK [ITGB7_Y758_YF] | 0.602 |
| RGESFYQDRMN [RARS_Y338] | 0.746 |
| KPPFSYNALIM [FOXG1_Y186] | 0.641 |
| QKMLDYLKEKK [RYR2_Y3780] | 0.9 |
| QNAGDYYDLYG [PTPN11_Y62_T59A] | 4.8 |
| HILRVYSGVLP [PCNX4_Y999_G1000S] | 0.968 |
| SSSPTYPDLPF [GLI3_Y168] | 0.839 |
| NTYEKYWLFYQ [GATM_Y103_P105L] | 1.26 |
| KPMDTYFDSTR [DYNC2H1_Y2230_YF] | 0.79 |
| RLEGVYRNNID [PTEN_Y46] | 0.553 |
| DPNQQYYIAMD [TBX15_Y159_H156N] | 1.12 |
| VDSLRYIYPKL [EIF2B3_Y92_A87V] | 0.757 |
| ALWFIYLHTRS [ENG_Y614_S615L_YF] | 1.2 |
| FSNVLYRPRGA [TMIGD2_Y197_YF] | 0.695 |

Molecular target: c-Src SH2
Experiment: SH2 binding enrichment of the phosphorylated peptide, bacterial display (enrichment ratio); higher = better substrate or ligand; peptides without Tyr show the background

| Sequence | SH2 binding enrichment |
| --- | --- |
| FRARAYGFRGP [CHGA_Y381] | 0.465 |
| GRVYVYRLSEQ [ITGAE_Y551] | 1.16 |
| SILTVYSKDNY [PANK2_Y400_A398T] | 0.676 |
| CTTIHYNYMCT [TP53_Y234_N239T] | 4.38 |
| TLLAFYMGNFS [GLB1_Y552_P549L] | 0.464 |
| CTTILYNYMCN [TP53_Y234_H233L] | 2.4 |
| AEYGLYRAMVR [VSX2_Y222_G223R] | 0.566 |
| RDSQIYAVDYE [MRPS34_Y34_L33I] | 0.485 |
| VKMLPYTEVTR [GDI1_Y93_L92P] | 2.9 |
| AGITAYQSCLQ [ADGRA2_Y377] | 0.395 |
| ALTDNYMFLVI [HAGH_Y61_YF] | 0.366 |
| FASALYGQRRS [FGF11_Y162_R163G_YF] | 0.511 |
| EGTATYAAAVL [JUP_Y644] | 0.493 |
| ITGNGYFFRVF [MYBPC3_Y1135_I1131T_YF] | 0.457 |
| KNKELYSDPFD [PDE10A_Y300_L303P] | 0.672 |
| FDRREYSRFEK [ITGB7_Y758_YF] | 0.513 |
| RGESFYQDRMN [RARS_Y338] | 0.461 |
| KPPFSYNALIM [FOXG1_Y186] | 0.403 |
| QKMLDYLKEKK [RYR2_Y3780] | 0.498 |
| QNAGDYYDLYG [PTPN11_Y62_T59A] | 0.687 |
| HILRVYSGVLP [PCNX4_Y999_G1000S] | 1.44 |
| SSSPTYPDLPF [GLI3_Y168] | 0.504 |
| NTYEKYWLFYQ [GATM_Y103_P105L] | 0.807 |
| KPMDTYFDSTR [DYNC2H1_Y2230_YF] | 0.472 |
| RLEGVYRNNID [PTEN_Y46] | 0.398 |
| DPNQQYYIAMD [TBX15_Y159_H156N] | 1.44 |
| VDSLRYIYPKL [EIF2B3_Y92_A87V] | 10.7 |
| ALWFIYLHTRS [ENG_Y614_S615L_YF] | 0.564 |
| FSNVLYRPRGA [TMIGD2_Y197_YF] | 0.416 |

Molecular target: SHP2-C SH2
Experiment: as above

| Sequence | SH2 binding enrichment |
| --- | --- |
| FRARAYGFRGP [CHGA_Y381] | 0.476 |
| GRVYVYRLSEQ [ITGAE_Y551] | 11.3 |
| SILTVYSKDNY [PANK2_Y400_A398T] | 0.679 |
| CTTIHYNYMCT [TP53_Y234_N239T] | 2.78 |
| TLLAFYMGNFS [GLB1_Y552_P549L] | 0.805 |
| CTTILYNYMCN [TP53_Y234_H233L] | 1.9 |
| AEYGLYRAMVR [VSX2_Y222_G223R] | 0.619 |
| RDSQIYAVDYE [MRPS34_Y34_L33I] | 0.691 |
| VKMLPYTEVTR [GDI1_Y93_L92P] | 0.863 |
| AGITAYQSCLQ [ADGRA2_Y377] | 0.497 |
| ALTDNYMFLVI [HAGH_Y61_YF] | 0.441 |
| FASALYGQRRS [FGF11_Y162_R163G_YF] | 0.457 |
| EGTATYAAAVL [JUP_Y644] | 0.722 |
| ITGNGYFFRVF [MYBPC3_Y1135_I1131T_YF] | 0.735 |
| KNKELYSDPFD [PDE10A_Y300_L303P] | 0.805 |
| FDRREYSRFEK [ITGB7_Y758_YF] | 0.633 |
| RGESFYQDRMN [RARS_Y338] | 0.725 |
| KPPFSYNALIM [FOXG1_Y186] | 0.497 |
| QKMLDYLKEKK [RYR2_Y3780] | 0.778 |
| QNAGDYYDLYG [PTPN11_Y62_T59A] | 0.625 |
| HILRVYSGVLP [PCNX4_Y999_G1000S] | 1.26 |
| SSSPTYPDLPF [GLI3_Y168] | 0.673 |
| NTYEKYWLFYQ [GATM_Y103_P105L] | 1.12 |
| KPMDTYFDSTR [DYNC2H1_Y2230_YF] | 0.696 |
| RLEGVYRNNID [PTEN_Y46] | 0.588 |
| DPNQQYYIAMD [TBX15_Y159_H156N] | 0.628 |
| VDSLRYIYPKL [EIF2B3_Y92_A87V] | 1.43 |
| ALWFIYLHTRS [ENG_Y614_S615L_YF] | 0.882 |
| FSNVLYRPRGA [TMIGD2_Y197_YF] | 0.638 |

Molecular target: Grb2 SH2 (UniProt P62993)
Sequence (P62993 whole entry, looked up): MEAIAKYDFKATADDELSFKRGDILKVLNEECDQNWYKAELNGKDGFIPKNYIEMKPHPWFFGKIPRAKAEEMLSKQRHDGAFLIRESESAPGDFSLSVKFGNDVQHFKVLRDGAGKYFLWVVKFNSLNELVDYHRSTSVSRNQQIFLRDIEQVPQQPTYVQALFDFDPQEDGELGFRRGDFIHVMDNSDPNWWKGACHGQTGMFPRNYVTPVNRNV
Experiment: as above

| Sequence | SH2 binding enrichment |
| --- | --- |
| FRARAYGFRGP [CHGA_Y381] | 0.705 |
| GRVYVYRLSEQ [ITGAE_Y551] | 1.41 |
| SILTVYSKDNY [PANK2_Y400_A398T] | 0.856 |
| CTTIHYNYMCT [TP53_Y234_N239T] | 1.42 |
| TLLAFYMGNFS [GLB1_Y552_P549L] | 0.835 |
| CTTILYNYMCN [TP53_Y234_H233L] | 1.78 |
| AEYGLYRAMVR [VSX2_Y222_G223R] | 0.855 |
| RDSQIYAVDYE [MRPS34_Y34_L33I] | 0.824 |
| VKMLPYTEVTR [GDI1_Y93_L92P] | 0.988 |
| AGITAYQSCLQ [ADGRA2_Y377] | 0.827 |
| ALTDNYMFLVI [HAGH_Y61_YF] | 0.68 |
| FASALYGQRRS [FGF11_Y162_R163G_YF] | 0.659 |
| EGTATYAAAVL [JUP_Y644] | 0.847 |
| ITGNGYFFRVF [MYBPC3_Y1135_I1131T_YF] | 0.75 |
| KNKELYSDPFD [PDE10A_Y300_L303P] | 0.623 |
| FDRREYSRFEK [ITGB7_Y758_YF] | 0.793 |
| RGESFYQDRMN [RARS_Y338] | 0.794 |
| KPPFSYNALIM [FOXG1_Y186] | 0.726 |
| QKMLDYLKEKK [RYR2_Y3780] | 1.09 |
| QNAGDYYDLYG [PTPN11_Y62_T59A] | 0.897 |
| HILRVYSGVLP [PCNX4_Y999_G1000S] | 1.1 |
| SSSPTYPDLPF [GLI3_Y168] | 0.859 |
| NTYEKYWLFYQ [GATM_Y103_P105L] | 0.788 |
| KPMDTYFDSTR [DYNC2H1_Y2230_YF] | 0.86 |
| RLEGVYRNNID [PTEN_Y46] | 0.948 |
| DPNQQYYIAMD [TBX15_Y159_H156N] | 0.881 |
| VDSLRYIYPKL [EIF2B3_Y92_A87V] | 0.88 |
| ALWFIYLHTRS [ENG_Y614_S615L_YF] | 0.875 |
| FSNVLYRPRGA [TMIGD2_Y197_YF] | 0.647 |
